Data on 16 sequences can be found in the DeepSol protein solubility set.

This data set can be described thus: soluble on expression in E. coli; label from the status in PepcDB or PDB records.
In the case of “MDSTARGHAPLCRTSNQRGLGTRLNPYYQSTPHQPMVQSMSNPIGSYGEQGNAQIIGSSGQVLSTGPPPGLAPVQCNDFDSCYSSCDDISHPSLSRESSDPSKIDDDQTAPMIRYPAPEVVEFATKLGYSTEQLSHVLNTIGVDSRMDDVLSELVKMGLPGGKPENSGKSGSRNSPEPIMTSSASSSSASSSSSHRPIRQSVSIATSSPATSSSTPSKYNPDPSLRAVVVDGSNVAMLHGRKEVFSCAGLRECLNYFLERGHPEVLIFIPQYRREQPRSDSPITDQHILQEIERHIIYTPSRNVNGRRVVCHDDRYILRTAELKDAVIVSNDEYRDLTRENPAWRKIVEERLLMFTFVEDKSVF”, the “soluble on expression in E. coli” value is recorded as “not soluble”.

As to “MDSVVSDVSDLVEPDEELKAWQTDRTRAPIATKIVVAGGFGAGKTTLVTAVSEITPLQTEALMTQASEDTDDLTGTPDKLTTTVAMDFGRITLDDDLVLYLFGTPGQQRFWFMWDDLVRGAIGAVVLADTRRLSDCFPALDYFESCGLPYVVAVNHFDGSEKFEPEDVREALTVPAHIPVMIMDARRRISVIETLLALVGHALEVSPELEHHHHHH”, the “soluble on expression in E. coli” value was “soluble”.

Turning to “MDTFGLIQLAELIYEYCGIDFFKNLSSLESKISERLKELGLSCWEYGGYLRVEPKEWDTLIDLITVNETYFFREENLLEEFQKVILPKYKDRTPNNPLRIWSSACSSGEEPYTLAILSEETGLFETGAVEIIASDIDKKVLEKARRGLYNKKSFSFRTMPKEILDKYFISFGDDYKVKDSIRAMVDFRRVNLLDENKLEKVGEVDIVFCRNVLIYFDTKAINKVINSLYKVLRAGGYLFLGHAETITGMNTGFETIYTPSAFYYRKGERH”, the “soluble on expression in E. coli” value is recorded as “not soluble”.

As for “MDTIININNNNQKYPQSAEEYHKVLCNYFITLQSAMQSTSRPSSSSPPSLPAVSSELLSSSFPTNAPESSSRDLAPKQNQFTINVVLFDEKKKKNPEENLPANGDQLATLRSLMMQINPSSPPSIPATSPQLPLAESENVPESSSTLKDHKFSLNTMLFNVKKNDAVKISLANQEQWAKFHEIGTEMMVFNSGRRLFPLLAYKVSGLDPHKLYCAGVHMIPDSAYKQEYDHDLQQWVNCLNQKKTIFKPTSEILGRIENGFKLMSLGIDMSDVKIFNIAIRKKTPLQIEKSRKPNLDKTIEVLIQYKYLPVIKIYELSNSGMEKKEIAQATFPETSFVTVSIYRNQKIKEMKTLGNKYCRTDRKQIVMEQRGELEQ”, the “soluble on expression in E. coli” value is listed as “not soluble”.

Consider “MDTLQFQKNPETAAKMSAYMKHQFVFAGIPAPERQALSKQLLKESHTWPKEKLCQEIEAYYQKTEREYQYVAIDLALQNVQRFSLEEVVAFKAYVPQKAWWDSVDAWRKFFGSWVALHLTELPTIFALFYGAENFWNRRVALNLQLMLKEKTNQDLLKKAIIYDRTTEEFFIQKAIGWSLRQYSKTNPQWVEELMKELVLSPLAQREGSKYLAKASE”, for which the “soluble on expression in E. coli” value is recorded as “soluble”.

“MDTPFIVFWELTRACMLACKHCRAKAIRKRHPDELTTEECFNVIDQLSEFNPKPLLIITGGDPLMRDDVTEIISHAAEKGFRVAIAFSGTEKATEEKLRELKEAGVARVAVSIDGSDEEKHDSFRGVRGTFRMSMMAIENAKKAGLPFQINTTVTRENIEDLPNIARLCLELGAVMWDVFFVVPTGRAKAEMMPTPQQFE”: the “soluble on expression in E. coli” value is given as “not soluble”.

“MDVEAFYKISYGLYIVTSESNGRKCGQIANTVFQLTSKPVQIAVCLNKENDTHNAVKESGAFGVSVLELETPMEFIGRFGFRKSSEFEKFDGVEYKTGKTGVPLVTQHAVAVIEAKVVKECDVGTHTLFVGEAVDAEVLKDAEVLTYADYHLMKKGKTPRTATVYFESK”: the “soluble on expression in E. coli” value is reported as “soluble”.

Turning to “MDVKWEGFSGVEMEEVKRNVFLTTLEQLKGWARSSSLWPLTFGLACCAIEMMAVGGAHYDLDRFGSFFRASPRQADVMIVSGTVTKKMAPLLRRLYDQMPEPKWVIAMGSCATAGGPYVKSYSVVKGVDQIVPVDVYIPGCPPNPAALIYGIHKLKEKIRLEAKTGKKVL”, the “soluble on expression in E. coli” value is “not soluble”.

For “MDVLEISKKILHEGPVCDHCMGRQFAKLSTGLSNRERGQAVKLALALEGDRIYKSENDDSLLKELAPCSALARKTLRIEGENEQCWVCLDQFKKLDFWAEEAAKALEGLEYSTFLVGTKVSGLLSENEEILWAEAGTAYAEQLKTELNREVGKRIAERVNKEVDFENPDIVITLDLATNKFELQVRSVYIYGRYLKKVRGIPQTRWPCRKCRGKGCEKCGFTGKQYPESVDELIKGPVVEAFEAVDTAFHGSGREDIDALMLGSGRPFVVEAKSPVKRSADLEALAAKINENAAGKVEVRDLRFVEKGMIETLKSSKADKTYKLKVTFKEPVSEEKLKSCLESLNGTEIAQQTPKRVVHRRADLIRKRYVHSITLNELTDDGYAYITVNCEGGLYVKELISGDEGRTNPSLTGLLGIPALVEDLDVVNVEILEHHHHHH”, the “soluble on expression in E. coli” value is recorded as “soluble”.

Turning to “MDVSEGGVTVSVPTASGGGEGAADDVFFNATQELNRDLTVATLAAFREREPRAASYLDAMTASGIRGVRAANAGWDVTMADVDADAVELATSNLARNGLDGEVVARDANSLLHDHDRVLDVVDIDPFGSPMPFADAAFANARNLVCVTATDTAPLCGAHFESGVRKYSATPRNTNYHAEMGLRILLGALARTAARYDVGVTPILSHVSDHYVRTYLELDHRATDANAAVEQVGHVYHCQQCLSRDHEYGLVAAPRAECPRCGGHQVLTAGPLWLGPAHEEAFAASVREQLTREMGEASQAFHLLQTIEGELHEPTHYDQHRLYSQWGEPAVGMAEFLDQLRDAGLRASRTHFGGTTFKTDGGLAEVEAAVLLEHHHHHH”, the “soluble on expression in E. coli” value is reported as “soluble”.

On to “MDVYHDGACPEVKPVDNFDWSQYHGKWWEVAKYPSPNGKYGKCGWAEYTPEGKSVKVSRYDVIHGKEYFMEGTAYPVGDSKIGKIYHSRTVGGYTKKTVFNVLSTDNKNYIIGYSCRYDEDKKGHWDHVWVLSRSMVLTGEAKTAVENYLIGSPVVDSQKLVYSDFSEAACKVNNSNWSHPQFEK”, for which the “soluble on expression in E. coli” value is on record as “soluble”.

In the case of “MDWIQCNHCGIKPNQTKLYLTACGHVFCQNCTKAAFNSQCYLCKKPLKVDEINKNLRPDLMELFKDPRQLASDLVNELKQVVAFQAKQREIYVKCKNAEAKKDTERFAEARSKHVEKTQEIEKRKKAFLEDNVKLKNAKEEKNQLMARLKELREQPSQNLSVNKRRSNTRTEPPFSKISRTGPPSVMRKASHEFSLNLRDQSTSKILTSTPLSNIDYSRRDHRNRLFGAGLEHPSPILRQ”, the “soluble on expression in E. coli” value is given as “soluble”.

With “MDYLNYEEIQSLKNSLLHNIKHTYISRYMILTALYTGMRPGEIAVLTWSDIDFKNQTININKSYNHDKGRVDNYDSSEIDKSTKNTNSVRIIKVDKKFLDILSQLKQNDHEKIFIGKDGTIPTSNAVNKVWRKQLEKLNIDKPSFHFHSVRHTHVALLPFKGVPLYAISKRLGHANMSTTAKKYAYMLDELKQQVRLEHHHHHH”, the “soluble on expression in E. coli” value is “soluble”.

As to “MDYTNNQLHVIYGDASLGLEGPNFHYLFSYERGGLESLVVNQKEWLYRTPTPLFWRATTDNDHGNGFDVKAAQWYAADRFTTCQKIDLTVDGQLVQPLPIAPLNNRYTNHEMANQVALTYHFVTPTVPSTSVSITYTVASDGNIKIMTHFAGREGLPELPAFGLRFIMPTTATGFDYQGLSGETYPDRLAGATQGQFHVDGLPVTPYLVPQECGMHMQTSQLTVTRSTTQNNADQSKQPFSLTFSQADQPFAFSCLPYTAAELEQATHLEELPLPRRTVLSIYGAVRGVGGIDSWGADVEAKYHIPANQDLDFSFNIHFLEHHHHHH”, the “soluble on expression in E. coli” value is listed as “not soluble”.

For “MDYYYYPFVSDPYAVYTPNVWQSQGADELYLYSMPAIERQPQPVLSNAPAQTSIVLFKELTGYPNYGNPSGNADILYTGNRGTWTFDIQPILLIPGNLTAQLVIRGVLDDHTNVPVANYSARITINGTVVHTGRLPLVHGSPAGQRFNNWRLLTFNVPNLRRNNTVVIQNTSNTGPNDWIAFDWMELRLQPR”, the “soluble on expression in E. coli” value is listed as “not soluble”.

For the sequence “MEAEMSDERCALVLEGGAMRGMYTAGVLDCFMDHDISFDAVIGVSAGALFGVNLLSKQRGRVIRYNKRFNSDKNYMGIRPLLREKNIVSTKYAYDTVPRELDPFDDEEYKKSDIPFYAVVTNIRTGKPEYVQIKSVFDQMDVLRASGSMPVVSKPVKLGNEWYLDGAVTDSIPYEHMLDMGYDRVVVVLTKPADYIKKPMPRLFTSVYKKRFPRFYEAFSNRHIMYNYQLEHLKELEKQGIAEVLRPSEHIKISKVEKDPNKLESLYQLGLRDAKRLLADKQGMEKQ”, the “soluble on expression in E. coli” value is listed as “not soluble”.
